This data set concerns the molecule itself. The data set can be described thus: SEC; analytical gel filtration of the purified protein on its own; S200/26-60 column, 20 mM HEPES-Na pH 7.5, 250 mM NaCl, 10 mM KCl, 10 mM MgCl2; fractions analysed by SDS-PAGE.

B1: BacF carrying a hexa-histidine tag (6-His-BacF) (natural protein, Bacillus subtilis, UniProt P39133 1-235, looked up)
chain: METTKLGNLKLYGAGHAAGGAYHNVSIKGEGIVGEGLSAVGCRIYGTGLFLGKAETERLRVLGESECKGDLTAGKINIYGTMKVSGSLQFDRFNLKGQTEIGGNMTGESCDVKGKLSVIGDCETEMFHVTGCVDVSGLLNSGEIKLGLSHDISHVQEIGGTTITVKRRASFFSRKKGKLIADVIEGDRVYLENTEAAVVRGKEVIIGPGCSIGTIEYEYKCECDPHSQIKEKTKL
notes: Bactofilin BacF, product of yhbF, Bacillus subtilis; full-length yhbF cloned into pET16b or pET24d; also called YhbF; his6-yhbF; source: E. coli BL21 (DE3); also coexpressed with untagged BacE, in cell extract
As for B1, the binding result is reported as “binds”.

B2: BacE carrying a hexa-histidine tag (his6-yhbE) (natural protein, Bacillus subtilis, UniProt P39132 1-237, looked up)
chain: MDVVEKLVINGSGSSKGGTFQSVEINGSGTVAGDVECDTFSFNGNGKADGSVKAKAVTISGSGKIHGDVEAESIRMNGTGFIQGEVSAKQLKIAGSSTFGGTVKADGIDISGKAVMEADCETETFQSEGKCKISGLLNADQVIIKLSAGESYAREIGCRHLQVTCRKGMLTLLRLMPQPVLTAELIEGDVIELTNTKAKTVRGNKVIIGPDCQIETVEYSGDYTCDPSASVETSTKL
notes: Bactofilin BacE, product of yhbE, Bacillus subtilis; full-length yhbE cloned into pET16b or pET24d; source: E. coli BL21 (DE3); also coexpressed with untagged BacF, in cell extract
As to B2, the binding result is recorded as “binds”.

The record behind these values is PMC4627819, “Bacillus subtilis Bactofilins Are Essential for Flagellar Hook- and Filament Assembly and Dynamically Localize into Structures of Less than 100 nm Diameter underneath the Cell Membrane” (PLoS ONE, 2015).
